Among the data in publication PMC3407951 (EMBO Molecular Medicine, 2012) are NEP-mediated degradation and fragment found values, retold here.

Data set [1] has as its target human NEP (Homo sapiens, UniProt P08473). The following applies: literature statement; ref Betts et al, [2008]; cited from earlier work.
Data set [2] relates to ADAM10. Put plainly: 0.4 µg. The following applies: human, 37°C, up to 24 h.

human NEP, sequence (P08473 whole entry): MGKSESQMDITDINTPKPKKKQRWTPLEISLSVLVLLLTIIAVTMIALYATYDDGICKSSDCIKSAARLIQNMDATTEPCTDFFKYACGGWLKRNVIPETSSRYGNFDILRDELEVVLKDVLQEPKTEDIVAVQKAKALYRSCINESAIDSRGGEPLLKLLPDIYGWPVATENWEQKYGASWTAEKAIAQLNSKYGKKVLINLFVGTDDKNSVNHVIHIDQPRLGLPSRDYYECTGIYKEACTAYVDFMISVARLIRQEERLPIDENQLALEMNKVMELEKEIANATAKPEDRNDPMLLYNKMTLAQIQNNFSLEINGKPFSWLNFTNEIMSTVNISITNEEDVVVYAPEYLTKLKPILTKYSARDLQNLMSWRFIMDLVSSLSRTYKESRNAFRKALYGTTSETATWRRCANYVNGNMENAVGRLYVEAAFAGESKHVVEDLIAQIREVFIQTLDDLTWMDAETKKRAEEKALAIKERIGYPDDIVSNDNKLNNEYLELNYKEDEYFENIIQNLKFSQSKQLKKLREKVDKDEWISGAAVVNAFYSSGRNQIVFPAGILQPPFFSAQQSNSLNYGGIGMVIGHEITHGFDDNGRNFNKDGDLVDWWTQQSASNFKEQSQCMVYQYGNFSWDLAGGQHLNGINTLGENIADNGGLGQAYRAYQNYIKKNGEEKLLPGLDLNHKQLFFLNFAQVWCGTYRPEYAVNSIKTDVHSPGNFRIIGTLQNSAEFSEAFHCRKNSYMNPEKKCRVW

As to “Aβ40 A21G: Aβ40 peptide with the Flemish mutation A21G (literature)”, the NEP-mediated degradation result in data set [1] is listed as “attenuated”. For the substance EVHHQNLVFFAEDVGSNK, the fragment found result in data set [2] is reported as “Aβ11–16 K16N, minor, 5 h”.
